Experimental findings from the supplement of paper PMC7877785 are described below.

The series in a line: self-splicing fitness, log relative to wild type (ln ratio); higher = more splicing; Tetrahymena group I intron in knt gene, E. coli kanamycin selection, DiMSum; sequences stand for … in CUCUCU…GGAGGGAAAAGUUAUCAGGCAUGCACCUGGUAGCUAGUCUUUAAACCAAUAGAUUGCAUCGGUUUAAAAGGCAAGACCGUCAAAUUGCGGGAAAGGGGUCAACAGCCGUUCAGUACCAAGUCUCAGGGGAAACUUUGAGAUGGCCUUGCAAAGGGUAUGGUAAUAAGCUGACGGACAUGGUCCUAACCACGCAGCCAAGUCCUAAGUCAACAGAUCUUCUGUUGAUAUGGAUGCAGUUCACAGACUAAAUGUCGGUCGGGGAAGAUGUAUUCUUCUCAUAAGAUAUAGUCGGACCUCUCCUUAAUGGGAGCUAGCGGAUGAAGUGAUGCAACACUGGAGCCGCUGGGAACUAAUUUGUAUGCGAAAGUAUAUUGAUUAGUUUUGGAGUACUCGUGGUCG
An outline of the steps:
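The eight P1ex-region nucleotides of an intron in the knt kanamycin-resistance gene on pET-22b(+) were all randomised and the library put into E. coli BL21(DE3). Six replicate transformations were grown overnight at 37°C or 30°C on LB agar with or without 25 μg/mL kanamycin, together with 100 μg/mL carbenicillin, 50 μM IPTG and 0.2% rhamnose. Colonies were pooled and amplicon-sequenced on an Illumina HiSeq 2500. Fitness from DiMSum is the error-weighted combination of wild-type-normalised replicate fold changes, kanamycin over none.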

± gives the uncertainty stated by the source.

On to GGUCAGCAAUAUUACGUUGG, for which the “self-splicing fitness (ln)” value is -3.35 ± 0.21 (30 °C) and -2.51 ± 0.2 (37 °C). For GGUGAGCAAUAUUACGAACG the same measures were -0.652 ± 0.13 and -1.23 ± 0.17. The matching figures for GGUGAGCAAUAUUACGACUU: -0.531 ± 0.11 and 0.294 ± 0.12. For GGUGAGCAAUAUUACGAUAG the same measures were -0.576 ± 0.23 and -2.81 ± 0.34. Regarding GGUGAGCAAUAUUACGCAUA, the “self-splicing fitness (ln)” value by setting is: (30 °C) -0.925 ± 0.15; (37 °C) -1.55 ± 0.22. The matching figures for GGUGAGCAAUAUUACGCUUU: -2.63 ± 0.4 and -3.04 ± 0.47.

Regarding GGUGAGCAAUAUUACGGCAC, the “self-splicing fitness (ln)” value is, setting by setting: (30 °C) -1.85 ± 0.17; (37 °C) -0.155 ± 0.18. For GGUGAGCAAUAUUACGGCAG, the “self-splicing fitness (ln)” value (30 °C) was -2.25 ± 0.32.

In the case of GGUGAGCAAUAUUACGGCUA, the “self-splicing fitness (ln)” value by setting is: (30 °C) -0.0423 ± 0.12; (37 °C) 0.0315 ± 0.14. For GGUGAGCAAUAUUACGGCUG the same measures were -1.06 ± 0.15 and -0.543 ± 0.21.

As to GGUGAGCAAUAUUACGGGCA, the “self-splicing fitness (ln)” value by setting is: (30 °C) -1.68 ± 0.17; (37 °C) -0.406 ± 0.17. For GGUGAGCAAUAUUACGGUGA, the “self-splicing fitness (ln)” value runs as follows: (30 °C) -2.81 ± 0.23; (37 °C) -1.28 ± 0.21. For GGUGAGCAAUAUUACGGUGC the same measures were -2.09 ± 0.14 and -0.734 ± 0.2. For GGUGAGCAAUAUUACGGUUG the same measures were -3.99 ± 0.37 and -2.36 ± 0.25. The matching figures for GGUGAGCAAUAUUACGUAUU: -1.96 ± 0.31 and -1.94 ± 0.47. As for GGUGAGCAAUAUUACGUCAA, the “self-splicing fitness (ln)” value runs as follows: (30 °C) -3.58 ± 0.46; (37 °C) -2.78 ± 0.31. The matching figures for GGUGAGCAAUAUUACGUCCG: -1.13 ± 0.21 and -0.66 ± 0.29. As to GGUGAGCAAUAUUACGUCCU, the “self-splicing fitness (ln)” value was -0.834 ± 0.23 (30 °C) and -1.45 ± 0.22 (37 °C).

For GGUGAGCAAUAUUACGUCGC, the “self-splicing fitness (ln)” value (30 °C) was -3.57 ± 0.49.

On to GGUGAGCAAUAUUACGUCGU, for which the “self-splicing fitness (ln)” value (30 °C) is -2.57 ± 0.15 and the “self-splicing fitness (ln)” value (37 °C) was -1.91 ± 0.2. The matching figures for GGUUAGCAAUAUUACGAACA: -0.6 ± 0.18 and 0.626 ± 0.25. For GGUUAGCAAUAUUACGAGUC the same measures were -3 ± 0.39 and -1.16 ± 0.23.

For the sequence GGUUAGCAAUAUUACGAUUU, the “self-splicing fitness (ln)” value reads like this: (30 °C) 0.309 ± 0.089; (37 °C) 0.0839 ± 0.12.

Turning to GGUUAGCAAUAUUACGCCGG, the “self-splicing fitness (ln)” value (30 °C) is -2.48 ± 0.5 and the “self-splicing fitness (ln)” value (37 °C) is -3.55 ± 0.42. For GGUUAGCAAUAUUACGCCGU the same measures were -1.91 ± 0.22 and -1.03 ± 0.21. The matching figures for GGUUAGCAAUAUUACGCCUA: 0.0795 ± 0.32 and -1.32 ± 0.25. For GGUUAGCAAUAUUACGCGCG the same measures were -0.271 ± 0.15 and 0.879 ± 0.15. Take GGUUAGCAAUAUUACGGACG: the “self-splicing fitness (ln)” value runs as follows: (30 °C) 0.908 ± 0.17; (37 °C) -0.388 ± 0.22. For GGUUAGCAAUAUUACGGCUA the same measures were -0.605 ± 0.088 and 0.861 ± 0.13. The matching figures for GGUUAGCAAUAUUACGGUUA: -1.23 ± 0.11 and -0.486 ± 0.082.

In the case of GGUUAGCAAUAUUACGGUUG, the “self-splicing fitness (ln)” value by setting is: (30 °C) -2.73 ± 0.32; (37 °C) -1.57 ± 0.33. For GGUUAGCAAUAUUACGGUUU the same measures were -0.608 ± 0.086 and -0.0158 ± 0.11. GGUUAGCAAUAUUACGUAAG: the “self-splicing fitness (ln)” value reads like this: (30 °C) -0.619 ± 0.14; (37 °C) -0.436 ± 0.23.

As for GGUUAGCAAUAUUACGUCCG, the “self-splicing fitness (ln)” value reads like this: (30 °C) -0.773 ± 0.11; (37 °C) -0.617 ± 0.2. For GGUUAGCAAUAUUACGUGCG the same measures were -0.0643 ± 0.066 and 0.0143 ± 0.078. The matching figures for GGUUAGCAAUAUUACGUUGG: -4.01 ± 0.34 and -1.72 ± 0.18. In the case of GUAAAGCAAUAUUACGAACG, the “self-splicing fitness (ln)” value was -0.437 ± 0.077 (30 °C) and -0.132 ± 0.12 (37 °C). The matching figures for GUAAAGCAAUAUUACGACAA: -0.153 ± 0.12 and -0.2 ± 0.13. For GUAAAGCAAUAUUACGAGCA the same measures were 0.322 ± 0.08 and 0.673 ± 0.11. For GUAAAGCAAUAUUACGAUCC the same measures were -0.0218 ± 0.18 and 0.363 ± 0.29.

GUAAAGCAAUAUUACGCAAG: the “self-splicing fitness (ln)” value was -2.89 ± 0.18 (30 °C) and -0.51 ± 0.12 (37 °C). Regarding GUAAAGCAAUAUUACGCAAU, the “self-splicing fitness (ln)” value was -0.316 ± 0.098 (30 °C) and -0.564 ± 0.16 (37 °C). Turning to GUAAAGCAAUAUUACGCACG, the “self-splicing fitness (ln)” value (30 °C) is -0.557 ± 0.067 and the “self-splicing fitness (ln)” value (37 °C) is -0.242 ± 0.093. The matching figures for GUAAAGCAAUAUUACGCGUA: -1.25 ± 0.094 and -0.105 ± 0.12. For the sequence GUAAAGCAAUAUUACGCUCU, the “self-splicing fitness (ln)” value is -2.11 ± 0.19 (30 °C) and -0.206 ± 0.24 (37 °C). For GUAAAGCAAUAUUACGCUGA the same measures were -1.4 ± 0.072 and -0.903 ± 0.099. The matching figures for GUAAAGCAAUAUUACGCUUC: -3.5 ± 0.23 and -1.97 ± 0.23. For GUAAAGCAAUAUUACGGCCC the same measures were 0.25 ± 0.16 and 0.443 ± 0.24. On to GUAAAGCAAUAUUACGGCCU, for which the “self-splicing fitness (ln)” value was -0.0192 ± 0.12 (30 °C) and 0.105 ± 0.12 (37 °C).

In the case of GUAAAGCAAUAUUACGGGAC, the “self-splicing fitness (ln)” value (30 °C) was -1.62 ± 0.12 and the “self-splicing fitness (ln)” value (37 °C) is -1.18 ± 0.11. Take GUAAAGCAAUAUUACGGUGG: the “self-splicing fitness (ln)” value is -2.81 ± 0.11 (30 °C) and -1.48 ± 0.11 (37 °C). For GUAAAGCAAUAUUACGGUUA the same measures were -0.077 ± 0.058 and 0.569 ± 0.086.

Regarding GUAAAGCAAUAUUACGUAAC, the “self-splicing fitness (ln)” value by setting is: (30 °C) -1.7 ± 0.17; (37 °C) -1.38 ± 0.28. GUAAAGCAAUAUUACGUAAU: the “self-splicing fitness (ln)” value (30 °C) is -1.58 ± 0.073 and the “self-splicing fitness (ln)” value (37 °C) was -0.314 ± 0.098.

As for GUAAAGCAAUAUUACGUAGC, the “self-splicing fitness (ln)” value runs as follows: (30 °C) -2.6 ± 0.11; (37 °C) -0.771 ± 0.097. For GUAAAGCAAUAUUACGUAGG the same measures were -2.5 ± 0.11 and -1.35 ± 0.15. The matching figures for GUAAAGCAAUAUUACGUAUG: -4.04 ± 0.25 and -0.559 ± 0.12. The matching figures for GUAAAGCAAUAUUACGUCAA: -1.56 ± 0.098 and -0.85 ± 0.097.

As for GUAAAGCAAUAUUACGUCAU, the “self-splicing fitness (ln)” value reads like this: (30 °C) -0.555 ± 0.095; (37 °C) -0.359 ± 0.096.

For GUAAAGCAAUAUUACGUGCU, the “self-splicing fitness (ln)” value (30 °C) was -2.34 ± 0.11 and the “self-splicing fitness (ln)” value (37 °C) is -0.431 ± 0.12.

Regarding GUAAAGCAAUAUUACGUGGC, the “self-splicing fitness (ln)” value (30 °C) was -3.42 ± 0.18 and the “self-splicing fitness (ln)” value (37 °C) was -2.48 ± 0.2.

Consider GUACAGCAAUAUUACGAACA, for which the “self-splicing fitness (ln)” value was -1.51 ± 0.11 (30 °C) and -0.736 ± 0.11 (37 °C). The matching figures for GUACAGCAAUAUUACGACUA: -1.16 ± 0.13 and -0.637 ± 0.12.

With GUACAGCAAUAUUACGAGAA, the “self-splicing fitness (ln)” value runs as follows: (30 °C) -2.36 ± 0.45; (37 °C) -1.51 ± 0.27. The matching figures for GUACAGCAAUAUUACGAGGC: -3.95 ± 0.46 and -1.41 ± 0.18. For GUACAGCAAUAUUACGCACG, the “self-splicing fitness (ln)” value is -2.42 ± 0.28 (30 °C) and -0.89 ± 0.19 (37 °C). Regarding GUACAGCAAUAUUACGCGCG, the “self-splicing fitness (ln)” value reads like this: (30 °C) -1.45 ± 0.19; (37 °C) -0.578 ± 0.17. For GUACAGCAAUAUUACGCGUG the same measures were -2 ± 0.061 and -1.42 ± 0.072.

In the case of GUACAGCAAUAUUACGGCCU, the “self-splicing fitness (ln)” value is -1.84 ± 0.17 (30 °C) and 0.0868 ± 0.17 (37 °C). The matching figures for GUACAGCAAUAUUACGGGCC: -3.94 ± 0.3 and -1.14 ± 0.15.

As for GUACAGCAAUAUUACGGUUG, the “self-splicing fitness (ln)” value is -3.9 ± 0.23 (30 °C) and -1.86 ± 0.2 (37 °C). The matching figures for GUACAGCAAUAUUACGUAUU: -3.45 ± 0.14 and -2.45 ± 0.17. For GUACAGCAAUAUUACGUUUC the same measures were -3.44 ± 0.14 and -1.87 ± 0.14.

On to GUAGAGCAAUAUUACGACAU, for which the “self-splicing fitness (ln)” value (30 °C) is 0.278 ± 0.014 and the “self-splicing fitness (ln)” value (37 °C) turned out to be 0.459 ± 0.033. The matching figures for GUAGAGCAAUAUUACGACUA: -0.724 ± 0.071 and 0.693 ± 0.11.
